In patent US20080292640A1:

Target: IL-1 receptor (human) (UniProt P14778)
Test: cell-based or functional assay

Sequence of UniProt P14778 (P14778 18-569): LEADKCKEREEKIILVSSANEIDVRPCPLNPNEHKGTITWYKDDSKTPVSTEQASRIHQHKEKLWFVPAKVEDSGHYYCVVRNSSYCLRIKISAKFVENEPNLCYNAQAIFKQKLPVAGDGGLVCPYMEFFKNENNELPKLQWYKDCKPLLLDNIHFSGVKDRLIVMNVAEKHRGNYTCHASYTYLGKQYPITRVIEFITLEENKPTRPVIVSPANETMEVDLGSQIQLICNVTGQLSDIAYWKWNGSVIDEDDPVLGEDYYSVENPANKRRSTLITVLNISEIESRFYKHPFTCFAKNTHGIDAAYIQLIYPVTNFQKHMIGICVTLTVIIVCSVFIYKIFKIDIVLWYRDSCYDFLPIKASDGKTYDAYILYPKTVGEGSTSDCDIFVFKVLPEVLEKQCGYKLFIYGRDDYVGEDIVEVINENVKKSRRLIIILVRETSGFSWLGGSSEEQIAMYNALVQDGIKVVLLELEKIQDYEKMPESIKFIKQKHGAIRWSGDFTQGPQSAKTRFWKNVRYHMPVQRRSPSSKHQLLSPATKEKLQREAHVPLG

Work on “Kineret® (anakinra) (from UniProt P18510 26-177) (ligand)” yielded an IC50, inhibition of IL-1β induced production of IL-8 in human whole blood (100 pM rhIL-1β) of 53.4 pM.
